Biological target: the molecule itself
Experiment: SEC

B1: S. cerevisiae homologue of GAP (Rna1), recombinant (natural protein, UniProt P11745 1-407, looked up)
chain: MATLHFVPQHEEEQVYSISGKALKLTTSDDIKPYLEELAALKTCTKLDLSGNTIGTEASEALAKCIAENTQVRESLVEVNFADLYTSRLVDEVVDSLKFLLPVLLKCPHLEIVNLSDNAFGLRTIELLEDYIAHAVNIKHLILSNNGMGPFAGERIGKALFHLAQNKKAASKPFLETFICGRNRLENGSAVYLALGLKSHSEGLKVVKLYQNGIRPKGVATLIHYGLQYLKNLEILDLQDNTFTKHASLILAKALPTWKDSLFELNLNDCLLKTAGSDEVFKVFTEVKFPNLHVLKFEYNEMAQETIEVSFLPAMEKGNLPELEKLEINGNRLDEDSDALDLLQSKFDDLEVDDFEEVDSEDEEGEDEEDEDEDEKLEEIETERLEKELLEVQVDDLAERLAETEIK
B1: binds.

Source: article doi:10.1101/2020.01.04.893909 (bioRxiv, 2020)
